Reference: patent US20020146750A1 (published 2002)

Biological target: T1, MUC1 60-mer peptide NH2-(…)3-COOH (biotinylated in the ELISAs and selections)
T1 construct: also called biotinylated MUC1 60-mer
Assay: ELISA, soluble Fab, biotinylated MUC1 60-mer; relative signal
Protocol: Soluble Fabs were produced as described (Roovers et al., Br. J. Cancer, 78: 1407-16 (1998)). ELISAs were performed as described by Henderikx et al. (Cancer Res., 58: 4324-4332 (1998)), except the biotinylated MUC1 60-mer was used. The selected PH1 and the affinity-matured antibodies were evaluated for affinity by surface plasmon resonance (SPR) on a BIAcore 2000 apparatus (BIAcore AB, Uppsala, Sweden). Channels of a biotin chip were coated with a MUC1 15-mer, containing the minimal PH1 epitope, PAP, (Ac-PDTRPAPGSTAPPAL-NH₂, (SEQ ID NO:40) 50 RU or 320 RU) or a 60-mer (NH₂-([…])₃-COOH (i.e., containing three copies of SEQ ID NO:8 (von Mensdorff-Pouilly et al., Tumor Biol., 19: 186-195 (1998), 50 RU) in HBS-EP buffer (Pharmacia). One surface was blocked with biotin (15 RU) and used as a negative control. The antibodies were injected in HBS-EP buffer. To minimize rebinding of the antigen binding fragments, the flow speed was 30 μl/sec. Affinity calculation was performed with the BIA-evaluation software provided by the BIAcore. The affinities of the Fabs were calculated according to a 1:1 stoichiometry at steady state.

T1 sequence (peptide, as listed by the source): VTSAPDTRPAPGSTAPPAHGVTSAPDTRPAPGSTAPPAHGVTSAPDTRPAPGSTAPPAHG

Binder | binding result
3A7 (Fab, V domains shown, PH1 Fab variant) VH: QVQLVQSGGGLVQPGGSLRLSCAASGFTFRSNAMGWVRQAPGKGLEWVSGISGSGGSTYYADSVKGRFTISRDNSKNTLYLQMNSLRAEDTAVYYCAKHTGGGVWDPIDKWGQGTLVTVSS VL: EIVLTQSPLSLPVTPGEPASISCRSSQSLLHSNGYTYLDWYLQKPGQSPQLLIYSGSHRASGVPDRFSGSVSGTDFTLRISRVEAEDVGVYYCMQGLQSPFTFGPGTKVDIKR | binds
3F4 (Fab, V domains shown, PH1 Fab variant) VH: QVQLVQSGGGLVQPGGSLRLSCAASGFTFRSNAMGWVRQAPGKGLEWVSGISGSGGSTYYADSVKGRFTISRDNSKNTLYLQMNSLRAEDTAVYYCAKHTGGGVWDPIANWGQGTLVTVSS VL: EIVLTQSPLSLPVTPGEPASISCRSSQSLLHSNGYTYLDWYLQKPGQSPQLLIYSGSHRASGVPDRFSGSVSGTDFTLRISRVEAEDVGVYYCMQGLQSPFTFGPGTKVDIKR | binds
3E2 (Fab, V domains shown, PH1 Fab variant) VH: QVQLVQSGGGLVQPGGSLRLSCAASGFTFRSNAMGWVRQAPGKGLEWVSGISGSGGSTYYADSVKGRFTISRDNSKNTLYLQMNSLRAEDTAVYYCAKHTGGGVWDPIAYWGQGTLVTVSS VL: EIVLTQSPLSLPVTPGEPASISCRSSQSLLHSNGYTYLDWYLQKPGQSPQLLIYSGSHRASGVPDRFSGSVSGTDFTLRISRVEAEDVGVYYCMQGLQSPFTFGPGTKVDIKR | binds
3G1 (Fab, V domains shown, PH1 Fab variant) VH: QVQLVQSGGGLVQPGGSLRLSCAASGFTFRSNAMGWVRQAPGKGLEWVSGISGSGGSTYYADSVKGRFTISRDNSKNTLYLQMNSLRAEDTAVYYCAKHTGGGVWDPIDDWGQGTLVTVSS VL: EIVLTQSPLSLPVTPGEPASISCRSSQSLLHSNGYTYLDWYLQKPGQSPQLLIYSGSHRASGVPDRFSGSVSGTDFTLRISRVEAEDVGVYYCMQGLQSPFTFGPGTKVDIKR | binds
3B9 (Fab, V domains shown, PH1 Fab variant) VH: QVQLVQSGGGLVQPGGSLRLSCAASGFTFRSNAMGWVRQAPGKGLEWVSGISGSGGSTYYADSVKGRFTISRDNSKNTLYLQMNSLRAEDTAVYYCAKHTGGGVWDPLGYWGQGTLVTVSS VL: EIVLTQSPLSLPVTPGEPASISCRSSQSLLHSNGYTYLDWYLQKPGQSPQLLIYSGSHRASGVPDRFSGSVSGTDFTLRISRVEAEDVGVYYCMQGLQSPFTFGPGTKVDIKR | binds
3H1 (Fab, V domains shown, PH1 Fab variant) VH: QVQLVQSGGGLVQPGGSLRLSCAASGFTFRSNAMGWVRQAPGKGLEWVSGISGSGGSTYYADSVKGRFTISRDNSKNTLYLQMNSLRAEDTAVYYCAKHTGGGVWDPFAYWGQGTLVTVSS VL: EIVLTQSPLSLPVTPGEPASISCRSSQSLLHSNGYTYLDWYLQKPGQSPQLLIYSGSHRASGVPDRFSGSVSGTDFTLRISRVEAEDVGVYYCMQGLQSPFTFGPGTKVDIKR | binds
3B8 (Fab, V domains shown, PH1 Fab variant) VH: QVQLVQSGGGLVQPGGSLRLSCAASGFTFRSNAMGWVRQAPGKGLEWVSGISGSGGSTYYADSVKGRFTISRDNSKNTLYLQMNSLRAEDTAVYYCAKHTGAGVWDPIDYWGQGTLVTVSS VL: EIVLTQSPLSLPVTPGEPASISCRSSQSLLHSNGYTYLDWYLQKPGQSPQLLIYSGSHRASGVPDRFSGSVSGTDFTLRISRVEAEDVGVYYCMQGLQSPFTFGPGTKVDIKR | binds

Other lines, results leading:

binding result | Binder
binds | 3F3 (Fab, V domains shown, PH1 Fab variant) VH: QVQLVQSGGGLVQPGGSLRLSCAASGFTFRSNAMGWVRQAPGKGLEWVSGISGSGGSTYYADSVKGRFTISRDNSKNTLYLQMNSLRAEDTAVYYCAKHTGRGVWDPIDYWGQGTLVTVSS VL: EIVLTQSPLSLPVTPGEPASISCRSSQSLLHSNGYTYLDWYLQKPGQSPQLLIYSGSHRASGVPDRFSGSVSGTDFTLRISRVEAEDVGVYYCMQGLQSPFTFGPGTKVDIKR
binds | 3H2 (Fab, V domains shown, PH1 Fab variant) VH: QVQLVQSGGGLVQPGGSLRLSCAASGFTFRSNAMGWVRQAPGKGLEWVSGISGSGGSTYYADSVKGRFTISRDNSKNTLYLQMNSLRAEDTAVYYCAKHTGGGVWDPMDYWGQGTLVTVSS VL: EIVLTQSPLSLPVTPGEPASISCRSSQSLLHSNGYTYLDWYLQKPGQSPQLLIYSGSHRASGVPDRFSGSVSGTDFTLRISRVEAEDVGVYYCMQGLQSPFTFGPGTKVDIKR
binds | 3D1 (Fab, V domains shown, PH1 Fab variant) VH: QVQLVQSGGGLVQPGGSLRLSCAASGFTFRSNAMGWVRQAPGKGLEWVSGISGSGGSTYYADSVKGRFTISRDNSKNTLYLQMNSLRAEDTAVYYCAQHTGGGVWDPIGYWGQGTLVTVSS VL: EIVLTQSPLSLPVTPGEPASISCRSSQSLLHSNGYTYLDWYLQKPGQSPQLLIYSGSHRASGVPDRFSGSVSGTDFTLRISRVEAEDVGVYYCMQGLQSPFTFGPGTKVDIKR
binds | 5A6 (Fab, V domains shown, PH1 Fab variant) VH: QVQLVQSGGGLVQPGGSLRLSCAASGFTFRSNAMGWVRQAPGKGLEWVSGISGSGGSTYYADSVKGRFTISRDNSKNTLYLQMNSLRAEDTAVYYCVKHTGGGVWDPIDYWGQGTLVTVSS VL: EIVLTQSPLSLPVTPGEPASISCRSSQSLLHSNGYTYLDWYLQKPGQSPQLLIYSGSHRASGVPDRFSGSVSGTDFTLRISRVEAEDVGVYYCMQGLQSPFTFGPGTKVDIKR
binds | 3D7 (Fab, V domains shown, PH1 Fab variant) VH: QVQLVQSGGGLVQPGGSLRLSCAASGFTFRSNAMGWVRQAPGKGLEWVSGISGSGGSTYYADSVKGRFTISRDNSKNTLYLQMNSLRAEDTAVYYCAKHTGAGVWDPIDYWGQGTLVTVSS VL: EIVLTQSPLSLPVTPGEPASISCRSSQSLLHSNGYTYLDWYLQKPGQSPQLLIYSGSHRASGVPDRFSGSVSGTDFTLRISRVEAEDVGVYYCMQGLQSPFTFGPGTKVDIKR
binds | 6B3 (Fab, V domains shown, PH1 Fab variant) VH: QVQLVQSGGGLVQPGGSLRLSCAASGFTFRSNAMGWVRQAPGKGLEWVSGISGSGGSTYYADSVKGRFTISRDNSKNTLYLQMNSLRAEDTAVYYCAKHTGGGVWDPIGHWGQGTLVTVSS VL: EIVLTQSPLSLPVTPGEPASISCRSSQSLLHSNGYTYLDWYLQKPGQSPQLLIYSGSHRASGVPDRFSGSVSGTDFTLRISRVEAEDVGVYYCMQGLQSPFTFGPGTKVDIKR
binds | 6A9 (Fab, V domains shown, PH1 Fab variant) VH: QVQLVQSGGGLVQPGGSLRLSCAASGFTFRSNAMGWVRQAPGKGLEWVSGISGSGGSTYYADSVKGRFTISRDNSKNTLYLQMNSLRAEDTAVYYCAKHTGSGVWDPINYWGQGTLVTVSS VL: EIVLTQSPLSLPVTPGEPASISCRSSQSLLHSNGYTYLDWYLQKPGQSPQLLIYSGSHRASGVPDRFSGSVSGTDFTLRISRVEAEDVGVYYCMQGLQSPFTFGPGTKVDIKR
binds | 3F7 (Fab, V domains shown, PH1 Fab variant) VH: QVQLVQSGGGLVQPGGSLRLSCAASGFTFRSNAMGWVRQAPGKGLEWVSGISGSGGSTYYADSVKGRFTISRDNSKNTLYLQMNSLRAEDTAVYYCAKHTGGGVWDPIYYWGQGTLVTVSS VL: EIVLTQSPLSLPVTPGEPASISCRSSQSLLHSNGYTYLDWYLQKPGQSPQLLIYSGSHRASGVPDRFSGSVSGTDFTLRISRVEAEDVGVYYCMQGLQSPFTFGPGTKVDIKR
